Measured values published in patent US20210388105A1 (ELPISCIENCE SUZHOU BIOPHARMA, published 2021).

Tests used:
[1] = target: T1, human CD39 (full length, on cells) (human, UniProt P49961 1-510); assay: FACS competition on CHOK1-hCD39; competitor mAb23-Alexa488
T1 construct: Recombinant on CHOK1-hCD39 cells or natural on SK-MEL-28, SK-MEL-5 and MOLP-8 cells; the cell line is named under assay; also called hCD39; ENTPD1
T1 sequence: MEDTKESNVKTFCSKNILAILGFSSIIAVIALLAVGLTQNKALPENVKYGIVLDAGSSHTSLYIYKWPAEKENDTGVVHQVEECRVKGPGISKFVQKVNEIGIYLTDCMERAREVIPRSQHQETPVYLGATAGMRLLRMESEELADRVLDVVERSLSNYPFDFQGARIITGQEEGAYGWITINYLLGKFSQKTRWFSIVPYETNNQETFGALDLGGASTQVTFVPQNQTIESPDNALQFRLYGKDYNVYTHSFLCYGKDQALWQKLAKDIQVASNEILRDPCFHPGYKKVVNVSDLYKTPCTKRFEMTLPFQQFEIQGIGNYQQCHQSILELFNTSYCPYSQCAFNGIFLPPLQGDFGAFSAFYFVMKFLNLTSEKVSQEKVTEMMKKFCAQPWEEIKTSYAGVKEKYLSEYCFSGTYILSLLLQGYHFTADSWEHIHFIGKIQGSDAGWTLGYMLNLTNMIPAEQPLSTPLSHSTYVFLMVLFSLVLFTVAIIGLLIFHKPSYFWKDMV
Experimental: (§1) Anti-CD39 antibodies were labeled using Alex488 labeling kit and were diluted in a series of concentrations, before mixing with CHOK1-hCD39 cells to test binding EC₅₀using FACS. The non-labeled antibodies were tested for their blocking efficacy to the labelled ones. Briefly, mononuclear CHOK1-hCD39 cells were prepared to 2×10⁶/ml and plated into 96 well at 50 μl/well, then mixed with antibodies gradients to final volume at 100 μl, and then equal volume of Alex488 label antibodies were added at two folds EC80 concentration. 96 well plates were incubated at 4° C. for 1 hour, and spun down and washed 3 times with 200 μl FACS buffer. The FACS analysis was performed on FACScelesta machine and data was analyzed by Flowjo software. The blocking percentages were calculated and those having above 80% competition rate were allocated into one epitope group, compared with the non-competing well (Alex488 labeled antibody only).
(§2) Based on the competition results, the 4 anti-CD39 hybridoma antibodies (mAb14, mAb19, mAb21, mAb23) can be grouped into 4 different epitope groups, as shown in Table 11.

[2] = target: T1, human CD39 (full length, on cells); assay: FACS competition on CHOK1-hCD39; competitor mAb14-Alexa488
Experimental: as §1, §2

[3] = target: T1, human CD39 (full length, on cells); assay: FACS, SK-MEL-28 cells
Experimental: (§3) FACS were used to determine binding of the antibodies to cell lines expressing CD39 naturally (SK-MEL-28) or recombinantly (CHOK1-hCD39, CHOK1-cynoCD39, and CHOK1-mCD39), or with cells lacking CD39 expression (CHOK1-blank) as a negative control.
Similarly, human CD39 expressing cells SK-MEL-5, SK-MEL-28 or MOLP-8, were incubated with a gradient concentration of anti-CD39 antibodies for 30 minutes at 4° C. Cells were washed 3 times using FACS buffer and next incubated with fluorescence labelled secondary antibody (goat-anti-mouse IgG or goat anti-human IgG) for 30 minutes at 4° C. Cells were washed 3 times and then re-suspended in FACS buffer and analyzed by flow cytometry analysis on BD Celesta. Data plotted and analyzed using GraphPad Prism 8.02.

[4] = target: T1, human CD39 (full length, on cells); assay: FACS, CHOK1-hCD39 cells
Excerpt: as §3
CHOK1-hCD39, CHOK1-cCD39, CHOK1-mCD39 and CHOK1-blank cells were maintained in culture medium according to ATCC procedure. Cells were collected and re-suspended in blocking buffer at a density of 3×10⁶ cells/ml. Cells were transferred to 96 well FACS plates at 100 μl/well (3×10⁵ cells/well), the plates were centrifuged and washed twice with FACS buffer (PBS, 1% FBS, 0.05% Tween-20). 4-folds serial dilution of anti-CD39 antibodies were prepared in FACS buffer starting from 30 μg/ml. Reference antibody 9-8B and mouse/human control IgG were used as positive and negative controls, respectively. Cells were re-suspended in 100 μL/well diluted antibodies, and the plates were incubated at 4° C. for 60 min. […] The plates were washed with FACS buffer, and cells were re-suspended in 100 μL/well of PBS. Cells were then analyzed with FACSVerse™ and mean fluorescence intensity were determined. Full binding curves were generated on the CD39 expressing cells by testing a range of antibody concentrations. Apparent affinity was determined for each antibody using Prism software.

6×His tagged human CD39 = target: T2, 6×His tagged human CD39 (human, UniProt P49961 38-478); assay: Biacore SPR, antibody captured on CM5 chip, His-tagged CD39 as analyte
T2 construct: Analyte in the Biacore assay
T2 sequence: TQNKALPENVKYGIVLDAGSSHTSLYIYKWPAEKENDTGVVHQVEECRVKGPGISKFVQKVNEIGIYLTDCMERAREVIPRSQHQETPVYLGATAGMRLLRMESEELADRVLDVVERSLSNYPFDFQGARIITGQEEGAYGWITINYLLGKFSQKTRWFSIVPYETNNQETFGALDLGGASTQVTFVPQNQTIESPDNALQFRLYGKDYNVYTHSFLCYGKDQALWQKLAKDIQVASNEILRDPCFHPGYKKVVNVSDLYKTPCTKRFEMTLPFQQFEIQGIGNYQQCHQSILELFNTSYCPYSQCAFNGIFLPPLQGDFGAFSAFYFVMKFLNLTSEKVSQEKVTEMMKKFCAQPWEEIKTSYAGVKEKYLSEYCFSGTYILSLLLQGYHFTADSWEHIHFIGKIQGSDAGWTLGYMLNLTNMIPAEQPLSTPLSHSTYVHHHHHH
Experimental: In particular, humanized antibodies hu23.H5L5, hu23.201, hu14.H1L1 and reference antibodies 1394 and T895 were characterized for binding affinity against human CD39 using Biacore (GE). Briefly the antibodies to be tested were captured to CM5 chip (GE) using Human Antibody Capture Kit (GE). The antigen of 6×His tagged human CD39 was serially diluted for multiple doses and injected at 30 μl/min for 180s. Buffer flow was maintained for dissociation of 400s. 3 M MgCl2 was used for chip regeneration. The association and dissociation curves were fit with 1:1 binding model, and the Ka/Kd/KD values for each antibody were calculated.

| Binder | blocking percentage [1] | blocking percentage [2] | EC50 [3] | EC50 [4] | Kd (6×His tagged human CD39) | koff (6×His tagged human CD39) | kon (6×His tagged human CD39) |
| --- | --- | --- | --- | --- | --- | --- | --- |
| Antibody 9-8B (antibody, V domains shown) VH: QIQLVQSGPELKKPGETVKISCKASGYTFTHYGMNWVKQAPGKGLKWMGWINTYTGELTYADDFKGRFAFSLETSASTAYLQINNLKNEDTATYFCARRAYYRYDYVMDYWGQGTSVTVSS VL: DIVMTQSQKFMSTSVGDRVSVTCKASHNVGTNVAWYQQKPGQSPKALIYSASYRYSGVPGRFTGSGSGTDFTLTISNVQSEDLAEYFCHQYNNYPYTFGGGTKLEIK | 100% | 55% | 0.8 nM | 1.7 nM |  |  |  |
| hu23.H5L5 (antibody, V domains shown, humanized c23) VH: QVQLVQSGAEVKKPGASVKVSCKASGYNLKDTFLHWVRQAPGQGLEWMGRIDPANGNIKYDPKFQGRVTITADTSANTAYMELISLRSEDTAVYYCANSPYYYGSGYRIFDVWGQGTTVTVSS VL: QIVLTQSPATLSLSPGERATLSCSAFSSVNYMHWYQQKPGQAPRLLIYTTSNLASGIPTRFSGSGSGTSYTLTISSLEPEDFAVYYCQQRSTYPFTFGQGTKLEIK |  |  |  |  | 19.5 nM | 0.0016 s⁻¹ | 82200 M⁻¹ s⁻¹ |
| mAb14 (antibody, V domains shown, mouse hybridoma antibody) VH: EVKLEESGGGLVQPGGSMKLSCVASGFTFSKYWMNWVRQSPEKGLEWVAEIRLKSNKYGTHYAESVKGRFTISRDDSKNNVYLQMNNLRPEDTGIYYCTTQLDLYWFFDVWGAGTTVTVSS VL: DIVMTQSPAILSVTPGDRVSLSCRASQSISDYLHWYQQKSHESPRLLIKYASQSISGIPSRFSGSGSGSNFTLSINSVEPEDVGVYFCQNGHSLPLTFGAGTKLELR | -26% | 98% | 28 nM | 2.5 nM |  |  |  |
| Antibody T895 (antibody, V domains shown, also called 31895) VH: EVQLQQSGPELVKPGASVKMSCKASGYTFTDYNMHWVKQSHGRTLEWIGYIVPLNGGSTFNQKFKGRATLTVNTSSRTAYMELRSLTSEDSAAYYCARGGTRFAYWGQGTLVTVSA VL: not shown |  |  |  |  | 1040 nM | 0.139 s⁻¹ | 133000 M⁻¹ s⁻¹ |
